Test results taken from US20030208060A1.

Legend:
[1] = biological target: trypsinized VLDL Sf100-400, devoid of apoE (tryp-VLDL) (human) (UniProt P04114); experiment: inhibition of 125I-tryp-VLDL1 binding to THP-1 macrophages, 4 °C, LpL 1.6 µg/ml
[2] = biological target: triglyceride-rich lipoproteins; experiment: co-incubation with TGRLP, cell binding and ligand blots
[3] = biological target: trypsinized VLDL2 (tryp-VLDL2) (human) (UniProt P04114); experiment: inhibition of 125I-tryp-VLDL2 binding to THP-1 macrophages, 4 °C, LpL 1.0 µg/ml

B1: lipoprotein lipase (enzyme, UniProt P06858 28-475, looked up, species assumed)
Lipoprotein lipase: ADQRRDFIDIESKFALRTPEDTAEDTCHLIPGVAESVATCHFNHSSKTFMVIHGWTVTGMYESWVPKLVAALYKREPDSNVIVVDWLSRAQEHYPVSAGYTKLVGQDVARFINWMEEEFNYPLDNVHLLGYSLGAHAAGIAGSLTNKKVNRITGLDPAGPNFEYAEAPSRLSPDDADFVDVLHTFTRGSPGRSIGIQKPVGHVDIYPNGGTFQPGCNIGEAIRVIAERGLGDVDQLVKCSHERSIHLFIDSLLNEENPSKAYRCSSKEAFEKGLCLSCRKNRCNNLGYEINKVRAKRSSKMYLKTRSQMPYKVFHYQVKIHFSGTESETHTNQAFEISLYGTVAESENIPFTLPEVSTNKTYSFLIYTEVDIGELLMLKLKWKSDSYFSWSDWWSSPGFAIQKIRVKAGETQKKVIFCSREKVSHLQKGKAPAVFVKCHDKSLNKKSG
Percent Inhibition [1]: 26% | percent inhibition of specific binding [2]: 25% | Percent Inhibition [3]: 17%
